# Data: PMC8113551 (2021)
# B1: ADI-15946 (antibody, V domains shown)
# VH: EVQLVESGGGLVKPGGSLRLSCAASGFTFSNAWMSWVRQAPGKGLEWVGRIKSKTDGGTIDYAAPVKGRFTISRDDSKNTVYLQMTSLKTEDTAVYYCTTYTEDMRYFDWLLRGGETFDYWGQGTLVTVSS
# VL: DIRLTQSPSSLSASVGDRVTITCRASHYISTYLNWYQQKPGKAPKLLIYAASNLQSGVPSRFSGSGFGTDFSLTISSLQPEDFATYHCQQSYSTPGRYTFGQGTKVEIK
# B2: c4G7 (antibody, V domains shown)
# VH: EVQLQESGPELEMPGASVKISCKASGSSFTGFSMNWVKQSNGKSLEWIGNIDTYYGGTTYNQKFKGKATLTVDKSSSTAYMQLKSLTSEDSAVYYCARSAYYGSTFAYWGQGTLVTVS
# VL: DIQMTQSPASLSASVGETVTITCRASENIYSYLAWYQQKQGKSPQLLVYNAKTLIEGVPSRFSGSGSGTQFSLKINSLQPEDFGSYFCQHHFGTPFTFGSGTELEIK
# B3: c2G4 (antibody, V domains shown)
# VH: EVQLQESGGGLMQPGGSMKLSCVASGFTFSNYWMNWVRQSPEKGLEWVAEIRLKSNNYATHYAESVKGRFTISRDDSKRSVYLQMNTLRAEDTGIYYCTRGNGNYRAMDYWGQGTSVTVS
# VL: DIQMTQSPASLSVSVGETVSITCRASENIYSSLAWYQQKQGKSPQLLVYSATILADGVPSRFSGSGSGTQYSLKINSLQSEDFGTYYCQHFWGTPYTFGGGTKLEIK
# B4: mAb100 (antibody, V domains shown)
# VH: QVQLQESGPGLVKPSDTLSLTCTVSGGSLSSFYWSWIRQPPGKGLEWIGYIYYSGSPNYSPSLESRVTMSVDTTRNQISLKLDSVTAADTAVYYCVRASRSYYWGSYRPTAFDSWGQGTLVTVSS
# VL: SYELTQPLSVSVSPGQTAIFTCSGDNLGDKYVCWFQQRPGQSPMLLIYQDNKRPSGIPERFSGSNSGNTATLTISGTQSTDEADYYCQTWDSTVVFGGGTKLTVL
# B5: CA45 (antibody, V domains shown)
# VH: QVQLQEWGEGLVKPSETLSLTCAVYGGSISGYYHWNWIRLPPGKGLEWIGNIDGNSASTNYNPSLKTRVTISKDTSKNQISLKVRSLTAADTAVYYCARDPGFTIFGVVITSWSGLDSWGQGAVVTVSS
# VL: DIQMTQSPSSLSASVGDTVTITCRASQSISNNLAWYQQRPRRAPQLLIYAASNLASGVPSRFSGSGSGTDFTLTISSLQAEDFAAYYCQQHNTLPLTFGGGTKVEIK
# B6: c13C6 (antibody, V domains shown)
# VH: DVKLLESGGGLVQPGGSLKLSCAASGFSLSTSGVGVGWFRQPSGKGLEWLALIWWDDDKYYNPSLKSQLSISKDFSRNQVFLKISNVDIADTATYYCARRDPFGYDNAMGYWGQGTSVTVS
# VL: DIVMTQSPLSLSTSVGDRVSLTCKASQNVGTAVAWYQQKPGQSPKLLIYSASNRYTGVPDRFTGSGSGTDFTLTISNMQSEDLADYFCQQYSSYPLTFGAGTKLELR
# B7: KZ52 (antibody, V domains shown)
# VH: EVQLLESGGGLVKPGGSLRLSCAASGFTLINYRMNWVRQAPGKGLEWVSSISSSSSYIHYADSVKGRFTISRDNAENSLYLQMNSLRAEDTAVYYCVREGPRATGYSMADVFDIWGQGTMVTVSS
# VL: not shown
# B8: mAb114 (antibody, V domains shown)
# VH: EVQLVESGGGLIQPGGSLRLSCAASGFALRMYDMHWVRQTIDKRLEWVSAVGPSGDTYYADSVKGRFAVSRENAKNSLSLQMNSLTAGDTAIYYCVRSDRGVAGLFDSWGQGILVTVSS
# VL: DIQMTQSPSSLSASVGDRITITCRASQAFDNYVAWYQQRPGKVPKLLISAASALHAGVPSRFSGSGSGTHFTLTISSLQPEDVATYYCQNYNSAPLTFGGGTKVEIK
# B9: ADI-15878 (antibody, V domains shown)
# VH: QVQLVQSGVTLVQPGGSLRVSCAASGFTFSSYAMSWVRQAPGKGLEWVSAISGLGGSTYYADSVKGRFTISRDNSKNTLYLQMNSLRAEDTAVYYCAKDHRVWAAGYHFDYWGQGALVTVSS
# VL: DIVLTQSPSTLSASVGDRVTITCRASQSISSWLAWYQQKPGEAPKLLISDASSLESGVPSRFSGSGSGTEFTLTISSLQPDDFATYYCQQYYSSPTFGGGTKVEIK
# Molecular target: GP[change] (Zaire ebolavirus | , UniProt Q05320)
# Experiment: BLI
row,Binder,Kd
1,B1,< 1 pM
2,B2,< 1 pM
3,B3,< 1 pM
4,B4,< 1 pM
5,B5,< 1 pM
6,B6,< 1 pM
7,B7,< 1 pM
8,B8,< 1 pM
9,B9,< 1 pM
